This test deals with wild type (WT) Aβ40 peptide (human).

On to Aβ40 A2V variant, full-length (peptide), for which the ThT fibrillization of 25 μM WT Aβ40 co-incubated with full-length A2V (WT to A2V 1 to 1 and 1 to 2): shortening of the lag time amounted to 6 h; the ThT signal at the final plateau of 25 μM WT Aβ40 mixed with two fold full-length A2V, against WT alone was found to be 40%.

For the molecule Aβ40 A2T variant, full-length (peptide), the ThT fibrillization of 25 μM WT Aβ40 co-incubated with full-length A2T (WT to A2T 1 to 1 and 1 to 2): extension of the lag phase came to 8 h. Take A2V NTF(1–10) (peptide): the ThT fibrillization of 25 μM WT Aβ40 co-incubated with A2V NTF(1–10) (1 to 1 and 1 to 6): shortening of the lag phase was 8 h; the ThT signal of the end-point product of 25 μM WT Aβ40 with A2V NTF(1–10) (1 fold and 6 fold), against WT only was 22%. DTEFRHDSYG [A2T NTF(1–10)]: the ThT fibrillization of 25 μM WT Aβ40 co-incubated with A2T NTF(1–10) (1 to 1 and 1 to 6): decrease of the ThT plateau was determined as 20%.

Source of the values: paper PMC5376091.
